{"source": "paper PMC6745524", "about": "“Diverse roles of TssA‐like proteins in the assembly of bacterial type VI secretion systems” (The EMBO Journal, 2019)", "target": "the molecule itself", "experiment": "cryo-EM structure"}
{"protein": "TssAVC (TssA of Vibrio cholerae, VCA0119), purified (natural protein, The His10 tag was removed with TEV protease; Only the CTD (G376-T466) is built in the atomic model; also called TsaC (proposed name); not shown: His10, N-terminal, cleaved; copies: 12) MEMTEYRQCVAKPISSSNPVGERLVDHPLFDFIEDQMMKVGSLSHASVQWDEVEHSTLKLLGEQSKDIKLLVYLLQCLHNQVTPTRLITSFAVMSEFLNQYWNDSYPAPGPRGNLPRRKFFSQMAQRFTTVIEKFDFHHLDEADRQALQAAVEEWQQAVEKQGLSSELVESVVVRITAEIKRAEQRQQVTAQSSAERETPSAATPSPAASMVVDHSSDKAAKQTLLKVADFLAEQEFGIALSIRLRRFAVWGSITSLPDHKPDGETLLRGMQADRVKDYQDQLRHPDLALWRKVEQSLTMAPYWFEGQWMSYTIAQQLGKSDWCQAIAEETQQFLRRLPSLLELKFKGGEPFVSDSVKEWLASVGQSQGAAGQSVGGDWQEKRKEAFQLAKEGGIAVALSMLNDGLVSAVEPRDKFYWRLLSADLLRANHLDAMAGEQYQTLLNQVTTLSVPEWEPSLVEQIQRYTTSE", "values": [{"measurement": "stoichiometry N", "result": 12}]}
